Read-outs that look alike come from different tables or passages of the source.
Columns and labels:
Assay in all cases: cryo-EM structure
[1] = target: φEL chaperonin (gene product 146 of Pseudomonas phage EL) (Pseudomonas phage EL)
[2] = target: φEL chaperonin (gene product 146 of Pseudomonas phage EL) (Pseudomonas phage EL); remark: listed apart in the source
[3] = target: φEL chaperonin (gene product 146 of Pseudomonas phage EL) (Pseudomonas phage EL); remark: listed apart in the source

φEL chaperonin (gene product 146 of Pseudomonas phage EL) (natural protein)
stoichiometry N [1]: 7
stoichiometry N [2]: 14
stoichiometry N [3]: 14
